Patent US11732029B2, “Methods and compositions for the treatment of wounds” (The University of Chicago, priority 2017, dated 2023)

Tests used:
[1] = tested on: full-thickness back-skin wounds in db/db mice; assay: Mouse diabetic skin wound healing model, histomorphometric analysis; format: in vivo; details: fibrin matrix, 100 ng VEGF-A165 and 50 ng PDGF-BB, after 7 d, vs fibrin alone
Protocol: Histomorphometric analyses were performed as previously reported. Briefly, an area of 8 mm in diameter, which includes the complete epithelial margins, was excised. Wounds were fixed with 2% PFA and cut in the center into two and embedded into paraffin. Histological analysis was performed on 5 μm serial sections. Images were captured with an EVOS FL Auto microscope (Life Technologies). The extent of re-epithelialization and granulation tissue formation were measured by histomorphometric analysis of tissue sections (H&E staining) using ImageJ software. For analysis of re-epithelialization, the distance that the epithelium had traveled across the wound was measured; the muscle edges of the panniculus carnosus were used as an indicator for the initial wound edges, and re-epithelialization was calculated as the percentage of the distance of edges of the panniculus carnosus muscle. For granulation tissue quantification, the area covered by a highly cellular tissue was determined.
Diabetic skin wound healing assays were performed in the mouse as previously reported. Briefly, C57BLKS/J-m/Lepr db (db/db) male mice were 10 to 12 wk old at the start of the experiments. Their backs were shaved and four full-thickness punch biopsy wounds (6 mm in diameter) were created in each mouse. […]

PlGF-1 = biological target: T1, PlGF-1 (Homo sapiens, UniProt P49763); assay: Recombinant GF binding to the vWF recombinant protein and A1 HBD peptide (ELISA); parameters: All growth factors (GFs) and chemokines were purchased in their mature forms; purchased PeproTech; host or cells: Escherichia coli; details: plate coated with vWF protein, A1 domain or HBD peptide, 1 μg/mL GF
T1 sequence (P49763 19-149 isoform P49763-2 limits assumed): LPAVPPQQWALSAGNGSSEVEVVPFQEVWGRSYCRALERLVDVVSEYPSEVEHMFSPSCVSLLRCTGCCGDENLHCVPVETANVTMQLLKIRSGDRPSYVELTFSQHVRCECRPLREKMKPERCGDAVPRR
Protocol: (§1) ELISA tests were performed as described above. In brief, ELISA plates were coated with 1 μg/mL of FL-vWF (WT or R1341Q), 1 μg/mL of vWF A1 recombinant protein (U-Protein Express) or 1 μg/mL of vWF A1 HBD peptide (sequence […], (SEQ ID NO:50) chemically synthesized by Genscript) at 37° C. overnight. After blocking with 2% BSA solution containing PBS-T, 1 μg/mL of the recombinant human proteins VEGF-A121, VEGF-A165, PlGF-1, PlGF-2, PDGF-BB, FGF-2, CXCL-12α and CXCL-12γ were added. 1 μg/mL of BSA served as non-binding protein control. Bound GF or chemokine was detected with biotinylated antibodies for human VEGF-A, PlGF, PDGF-BB, FGF-2, or CXCL-12 (R & D Systems). The antibodies were detected by streptavidin-HRP (R & D Systems). Color development and the absorbance measurement were done as described above.

VEGF-A121 = biological target: T2, VEGF-A121 (Homo sapiens, UniProt P15692); assay: as above; parameters: All growth factors (GFs) and chemokines were purchased in their mature forms; purchased PeproTech; host or cells: Escherichia coli; details: plate coated with vWF protein, A1 domain or HBD peptide, 1 μg/mL GF
T2 sequence (P15692 27-147 isoform P15692-9 limits assumed): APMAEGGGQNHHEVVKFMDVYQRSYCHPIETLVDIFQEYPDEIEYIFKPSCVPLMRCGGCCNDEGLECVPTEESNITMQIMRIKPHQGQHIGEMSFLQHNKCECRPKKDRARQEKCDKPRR
Protocol: as §1

FGF-2 = FGF-2 (Homo sapiens, UniProt P09038); assay: as above; parameters: All growth factors (GFs) and chemokines were purchased in their mature forms; purchased PeproTech; host or cells: Escherichia coli; details: plate coated with vWF protein, A1 domain or HBD peptide, 1 μg/mL GF
Protocol: as §1

PlGF-2 = biological target: T3, PlGF-2 (Homo sapiens, UniProt P49763); assay: as above; parameters: All growth factors (GFs) and chemokines were purchased in their mature forms; purchased PeproTech; host or cells: Escherichia coli; details: plate coated with vWF protein, A1 domain or HBD peptide, 1 μg/mL GF
T3 sequence (P49763 19-170 isoform P49763-3 limits assumed): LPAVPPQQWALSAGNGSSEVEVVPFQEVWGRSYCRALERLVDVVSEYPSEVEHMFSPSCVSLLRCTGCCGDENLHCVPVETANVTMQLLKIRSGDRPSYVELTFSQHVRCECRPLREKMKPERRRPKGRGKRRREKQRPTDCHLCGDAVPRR
Protocol: as §1

PDGF-BB = biological target: T4, PDGF-BB (Homo sapiens, UniProt P01127); assay: vWF binding to recombinant GFs (ELISA); details: VEGF-A121 signal as baseline
T4 construct: All growth factors (GFs) and chemokines were purchased in their mature forms; purchased PeproTech; host or cells: Escherichia coli
Protocol: (§2) ELISA tests were performed as previously reported1. In brief, ELISA plates (med-binding, Greiner Bio-One) were coated with 50 nM GFs at 37° C. for 2 hrs. After blocking with 2% BSA solution containing PBS-T, 1 μg/mL of plasma-derived vWF (EMD Millipore) was added. Bound vWF was detected with 1 μg/mL of rabbit anti-human vWF antibody (Sino Biological). Then, HRP conjugated goat anti-rabbit antibody (Jackson ImmunoResearch) was added. After 60 min of incubation, 50 μL TMB substrate (Sigma-Aldrich) was added. The reaction was stopped by adding 25 μL of 2N H2SO4. Subsequently, the absorbance at 450 nm was measured and subtracted the absorbance at 570 nm.

CXCL-12γ = biological target: T5, CXCL-12γ (Homo sapiens, UniProt P48061); assay: vWF binding to recombinant GFs (ELISA); details: VEGF-A121 signal as baseline
T5 construct: All GFs and chemokines were purchased in their mature forms; purchased R & D Systems; host or cells: Escherichia coli
Protocol: as §2

Chain of FGF-2 (P09038 143-288): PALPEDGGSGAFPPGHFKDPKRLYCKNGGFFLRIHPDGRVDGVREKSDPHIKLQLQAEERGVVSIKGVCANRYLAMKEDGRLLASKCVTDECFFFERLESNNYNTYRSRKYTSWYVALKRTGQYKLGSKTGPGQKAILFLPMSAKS
T4 sequence (P01127 82-190 limits assumed): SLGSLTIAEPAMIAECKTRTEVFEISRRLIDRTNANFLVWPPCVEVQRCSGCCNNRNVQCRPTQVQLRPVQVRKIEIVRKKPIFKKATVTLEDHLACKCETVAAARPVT
T5 sequence (P48061 22-119 isoform P48061-3): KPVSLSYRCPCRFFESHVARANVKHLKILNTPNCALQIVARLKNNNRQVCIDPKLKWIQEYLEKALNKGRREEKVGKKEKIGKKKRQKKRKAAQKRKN

Substance | granulation tissue [1] | wound closure [1] | binding to PlGF-1 (PlGF-1) | binding to VEGF-A121 (VEGF-A121) | binding to FGF-2 (FGF-2) | binding to PlGF-2 (PlGF-2) | vWF binding to PDGF-BB (PDGF-BB) | vWF binding to CXCL-12γ (CXCL-12γ)
YIGLKDRKRPSELRRIASQVKYAC [vWF HBD] | did not differ | did not differ | neither VEGF-A121 nor PlGF-1 were able to bind | neither VEGF-A121 nor PlGF-1 were able to bind | showed binding | showed binding | – | –
vWF: human plasma-derived von Willebrand factor (EMD Millipore) | – | – | – | – | – | – | bound | strong binding signal
